For test [1], the target named is T1, monoclonal antibody (RITUXAN, manufactured by Zenyaku Kogyo Co., Ltd.).
T1 construct: That tie rests on the trade name; also called rituximab
Nature of the test: affinity chromatography on the FcR9_F-immobilized gel column; equilibration 20 mM acetate, 50 mM NaCl, pH 5.0; elution by pH gradient to 10 mM glycine-HCl pH 3.0; 0.6 mL/min; A280. On the procedure: (4) Five microliters of a monoclonal antibody (RITUXAN, manufactured by Zenyaku Kogyo Co., Ltd.), which was diluted with phosphate buffered saline (PBS) (pH 7.4) to yield a concentration of 1.0 mg/mL, was added at a flow rate of 0.6 mL/min.
(5) Washing was performed with the equilibration buffer for 2 minutes while the flow rate was maintained at 0.6 mL/min. Subsequently, a monoclonal antibody adsorbed was eluted with a pH gradient of 10 mM glycine-HCl buffer (pH 3.0) (i.e., a gradient in which 10 mM glycine-HCl buffer (pH 3.0) accounts for 100% in 28 minutes).

For test [2], the target named is T2, IgG1 (manufactured by Sigma-Aldrich).
T2 construct: Analyte in the SPR assay, diluted in HBS-EP; also called IgG1 antibody
As to the kind of experiment: SPR (Biacore T100), Fc-binding protein amine-coupled to CM5, IgG1 as analyte. On the procedure: (7) IgG1-binding ability of each Fc-binding protein collected as the elution fraction in (6) was evaluated using the surface plasmon resonance method. Upon measurement of the binding ability using the surface plasmon resonance method, Biacore T100 (manufactured by GE Healthcare) was used as a measurement system, Sensor Chip CM5 (manufactured by GE Healthcare) was used as a sensor chip, and Biacore T100 Evaluation Software (manufactured by GE Healthcare) was used as analysis software.
(8) A solution prepared by diluting IgG1 (manufactured by Sigma-Aldrich) with HBS-EP (manufactured by GE Healthcare) was supplied to a sensor chip on which each Fc-binding protein was separately immobilized using an Amine Coupling Kit (manufactured by GE Healthcare), thereby obtaining a sensorgram. Curve fitting was performed based on the sensorgram so as to calculate IgG1-binding ability.
For orientation: Surface plasmon resonance follows binding to a sensor surface in real time, without labels.

What is called Kd is the free concentration of one partner at which half of the binding sites on the other are occupied at equilibrium, for simple one-to-one binding. The low end stands for tighter binding, the high end for weaker binding. The koff is the first-order rate constant of dissociation. Read a high koff as fast dissociation. As a reminder, the kon is a measure of how fast the partners come together.

T1 sequence (heavy, as listed by the source, chain 1 of 2): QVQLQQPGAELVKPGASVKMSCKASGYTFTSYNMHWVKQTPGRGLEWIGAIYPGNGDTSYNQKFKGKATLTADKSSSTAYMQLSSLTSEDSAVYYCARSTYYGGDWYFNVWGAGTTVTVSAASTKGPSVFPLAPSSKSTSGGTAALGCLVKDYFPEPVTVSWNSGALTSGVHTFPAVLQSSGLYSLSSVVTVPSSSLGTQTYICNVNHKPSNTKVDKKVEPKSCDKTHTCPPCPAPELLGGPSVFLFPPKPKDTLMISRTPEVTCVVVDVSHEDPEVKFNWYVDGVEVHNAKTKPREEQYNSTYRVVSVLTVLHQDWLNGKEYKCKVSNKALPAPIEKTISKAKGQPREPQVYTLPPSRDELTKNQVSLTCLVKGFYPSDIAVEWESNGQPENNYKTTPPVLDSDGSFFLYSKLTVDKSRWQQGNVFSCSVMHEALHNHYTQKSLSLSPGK
T1 sequence (light, as listed by the source, chain 2 of 2): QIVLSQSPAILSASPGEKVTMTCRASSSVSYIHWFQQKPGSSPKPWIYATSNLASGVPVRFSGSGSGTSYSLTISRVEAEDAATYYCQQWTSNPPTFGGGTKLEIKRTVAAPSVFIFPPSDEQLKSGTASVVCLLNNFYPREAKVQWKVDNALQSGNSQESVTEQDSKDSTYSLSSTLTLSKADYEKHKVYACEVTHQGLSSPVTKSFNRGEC

B1: FcR9_F_Cys (FcR9_F with a cysteine tag added) (receptor)
chain: MGMRTEDLPKAEVILEPQWNRVLEKDSVTLKCRGAYSPEDNSTQWFHNESLISSQASSYLIDAATVDDSGEYRCQTSLSTLSDPVQLEVHIGWLLLQAPRWEFKEGDPIHLRCHSWKNTALHKVTYLQNGKGRKYFHHNSDFYIPKATLKDSGSYSCRGLFGSKNVSSETVNITITQGCRNDTCG
notes: also called FcR9_F-immobilized gel; FcR9_F column
Take B1: the binding result in test [1] is on record as “binds”.

B2: Fc-binding protein FcR9 (human FcγRIIIa amino acid substitution product) (receptor)
chain: KIEEAMGMRTEDLPKAEVILEPQWNRVLEKDSVTLKCRGAYSPEDNSTQWFHNESLISSQASSYLIDAATVDDSGEYRCQTSLSTLSDPVQLEVHIGWLLLQAPRWEFKEGDPIHLRCHSWKNTALHKVTYLQNGKGRKYFHHNSDFYIPKATLKDSGSYSCRGLVGSKNVSSETVNITITQGGHHHHHH
Consider B2, for which, in test [2], the equilibrium dissociation constant (Kd) turned out to be 77.3 nM, the koff amounted to 0.0313 s⁻¹ and the kon stood at 405000 M⁻¹ s⁻¹.
